Two substances from paper PMC10404610 (Biochemistry and Biophysics Reports, 2023) can be followed below.

No end group written: not given here.

The term Kd denotes the concentration at which binding is half-saturated.

The target of assay [1] is CCL21 (UniProt O00585). Kind of assay: NMR titration.
Assay [2] concerns the target T1, CCL21 (Homo sapiens, UniProt O00585).
T1 sequence (O00585 24-134): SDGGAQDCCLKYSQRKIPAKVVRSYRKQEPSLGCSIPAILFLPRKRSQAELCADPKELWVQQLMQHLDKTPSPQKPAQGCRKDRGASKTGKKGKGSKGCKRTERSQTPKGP
Kind of assay: 2D 15N-1H HSQC NMR titration of [U-15N] CCL21 with PSGL1 1–15 peptide. In kind it is binding.

Take PSGL1 residues 1-15 peptide: the Kd in assay [1] is 300 µM.
In turn, QTAEYEYLDYDFLPE [PSGL1 peptide] showed a Kd in assay [2] of 300 ± 100 µM.
